We go through eight molecules from patent US20260042834A1, “ANTI-CORTICOTROPIN-RELEASING HORMONE ANTIBODIES AND POLYCYSTIC OVARY SYNDROME” (HBM ALPHA THERAPEUTICS, INC., priority 2022, published 2026).

The target of one assay is T1, biotinylated CRH (Homo sapiens, UniProt P06850).
T1 construct: purchased GL Biochem 784751
T1 sequence (P06850 154-194): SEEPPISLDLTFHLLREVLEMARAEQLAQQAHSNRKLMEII
Nature of the assay: Affinity determination with Octet. It is filed as binding. As for the experimental part:
Octet® Red 96e was used for affinity measurement. Octet® running buffer was prepared by diluting kinetics buffer 10× (Fortebio, Cat #18-1105) in PBS according to the manufacturer's instructions. Two columns of SA sensors (Fortebio, Cat #18-5019) were hydrated in running buffer for 10 mins, one for ligand capturing and the other for reference. Antibodies were 2-fold diluted and added into a 96-well plate. 30 nM biotinylated CRH (GL Biochem, Cat #784751) was captured by the first column of SA sensors for 20 seconds, while reference sensors were dipped into buffer wells. After a 60-second baseline step, sensors were dipped into analyte and buffer wells successively, with the association and dissociation time of 180 seconds and 800 seconds, respectively. Sensors were regenerated in glycine pH1.5 (Cytiva, Cat #BR-1003-54) before the next cycle. […] Signals of reference wells and reference sensors were subtracted by selecting “Double reference” before data fitting.
(In BLI a coated tip is dipped into the sample, and binding shifts an interference pattern.)

A further assay deals with mouse CRHR2. Nature of the assay: CRH-induced luciferase reporter blocking assay, CHO-CRE-mCRHR2 cells. It is filed as cell-based. As to the method: To create CHO-CRE-hCRHR1, -hCRHR2, -mCRHR1, and -mCRHR2 reporter cell lines, pcDNA3.1-hCRHR1, -hCRHR2, -mCRHR1, and -mCRHR2 were introduced into CHO-CRE cells established above by electroporation as described above. Selection antibiotics hygromycin at 500 μg/ml and G418 at 1,000 μg/ml were employed. Individual established stable cell lines were characterized by both CRH and forskolin stimulation. […]
(§1) Cells were digested by trypsin-EDTA (Life technologies, Cat #:12604-013), centrifuged at 1,000 rpm for 5 min, resuspended in growth medium, counted using a cell counter, seeded at a concentration of 5,000 cells per 100 μl in 96-well flat plates, and incubated overnight. 50 μl of 4× serially diluted antibodies was added (8 points, 1/4 diluted by growth medium) to plates containing CHO-CRE-hCRHR1 cells, and 50 μl of 4×CRH (4× is 2 nM, final is 0.5 nM) was added. Similarly, 4×CRH (4× is 0.4 nM, final is 0.1 nM) was added to CHO-CRE-hCRHR2 cells and CHO-CRE-mCRHR1 cells, and 4×CRH (4× is 20 nM, final is 5 nM) was added to CHO-CRE-mCRHR2 cells. Next, plates were incubated 4-6 hours at 37° C. in a CO2 incubator. 60 μl of culture medium was removed, to which was added 60 μl of Bio-Glo luciferase, followed by incubation for 10 min at RT. Plates were read in a luciferase plate reader (EnVision, PerkinElmer).
Background: A reporter such as luciferase makes a cellular process visible.

In a further assay the test system is human CRHR2. The experiment in a line: CRH-induced luciferase reporter blocking assay, CHO-CRE-hCRHR2 cells. In kind it is cell-based. As to the method:
To create CHO-CRE-hCRHR1, -hCRHR2, -mCRHR1, and -mCRHR2 reporter cell lines, pcDNA3.1-hCRHR1, -hCRHR2, -mCRHR1, and -mCRHR2 were introduced into CHO-CRE cells established above by electroporation as described above. Selection antibiotics hygromycin at 500 μg/ml and G418 at 1,000 μg/ml were employed. Individual established stable cell lines were characterized by both CRH and forskolin stimulation.
Activated GPCR proteins increase production of the intracellular cAMP. CHO-CRE-human CRHR1 stable clone 11 was generated by introduction of pcDNA3.1-human CRHR1 under the selection of G418 and hygromycin. Human CRHR1 expression in CHO-CRE-hCRHR1 Clone 11 was confirmed by flow cytometry (data not shown). To further validate that the cell line was functional, CHO-CRE-hCRHR1 Clone 11 cells were treated with forskolin and CRH peptide. […] Subsequently CHO-CRE-hCRHR2 Clone 32, -mCRHR1 Clone 22, and -mCRHR2 Clone 8 cell lines were established using similar methodology and validated with CRH treatment (data not shown).
Blocking CRHR1 by small molecules or neutralization of CRH peptide can reduce luciferase expression if the CRH-CRHR1 system works in CHO-CRE-hCRHR1 cells. Antalarmin, a small molecule CRHR1 antagonist, blocked CRH-mediated luciferase expression in CHO-CRE-hCRHR1 Clone 11 (data not shown). Furthermore, sheep anti-CRH polyclonal antibody reduced CRH-mediated luciferase expression in these cells (data not shown). Likewise, sheep anti-CRH polyclonal antibody blocked CRH-mediated luciferase expression in CHO-CRE-hCRHR2, CHO-CRE-mCRHR1, and CHO-CRE-mCRHR2 cells (data not shown).
as §1

Setting [1] is: CHO-CRE-hCRHR2 cells, 0.1 nM CRH.

Positions count from the first letter of the chain named.

B1: PR302334-11: humanized variant of Series 9 mAb PR302334; VH SEQ ID NO: 273, VL SEQ ID NO: 329 (antibody, V domains shown)
VH: EVQLVESGGGLVQPGGSLRLSCAASGFTFSTYAMSWVRQAPGKGLEWVASIRSGGTTYYPDSVKGRFTISRDNSKNTLYLQMNSLRAEDTAVYYCTRGIDWGQGTTVTVSS
VL: DIQMTQSSLSASVSLGDRVTITCKASQSVNNDVAWYQQKPGKAPRLLIYYASNRYTGVPSRFSGSGSGTDFTFTISSLQPEDIATYYCQQDYSSWTFGGGTKVEIK
modifications: PR302334-10 VH, PR302334-11 VH, PR302334-12 VH, PR302334-14 VH,PR302334-7 VH, PR302334-8 VH, PR302334-9 VH; PR302334-11 VL, PR302334-5 VL
Consider B1, for which, in the assay with biotinylated CRH, the “kdis” value is under 1e-07 s⁻¹ and the “kon” value is 684000 M⁻¹ s⁻¹.

B2: PR302334-25: humanized variant of Series 9 mAb PR302334; VH SEQ ID NO: 275, VL SEQ ID NO: 330 (antibody, V domains shown)
VH: B1 VH with Q13K, S74A, T77S
VL: B1 VL with I83L, Y87F
modifications: PR302334-16 VH, PR302334-24 VH, PR302334-25 VH; PR302334-12 VL, PR302334-25 VL, PR302334-27 VL, PR302334-6 VL
Turning to B2, in the assay with biotinylated CRH, the “kdis” value is under 1e-07 s⁻¹ and the “kon” value turned out to be 285000 M⁻¹ s⁻¹.

B3: PR302341-19: humanized variant of Series 10 mAb PR302341; VH SEQ ID NO: 282, VL SEQ ID NO: 340 (antibody, V domains shown)
VH: QVQLVQSGAEVKKPGASVKVSCKASGYTFTDYFMKWVRQAPGQGLEWMGVINPNNGDIFYNQKFKGRVTMTRDTSTSTVYMELSSLRSEDTAVYYCARGTDRALFAYWGQGTLVTVSS
VL: DVVMTQSPLSLPVTLGQPASISCRSGQSIVHSDGNTYLEWYQQRPGQSPRLLIYKVSNRFSGVPDRFSGSGSGTDFTLKISRVEAEDLGVYYCFQGSHIPWTFGGGTKVEIK
modifications: PR302341-13 VH, PR302341-19 VH; PR302341-19 VL, PR302341-20 VL, PR302341-21 VL, PR302341-22 VL,PR302341-23 VL, PR302341-28 VL, PR302341-29 VL, PR302341-2 VL,PR302341-41 VL, PR302341-55 VL, PR302341-56 VL, PR302341-57 VL,PR302341-
Take B3: the IC50 in the assay on mouse CRHR2 (CHO-CRE-mCRHR2 cells, 5 nM CRH) came to 673 pM; in the assay with human CRHR2 (setting [1]), 178 pM.

B4: PR302341-23: humanized variant of Series 10 mAb PR302341; VH SEQ ID NO: 286, VL SEQ ID NO: 340 (antibody, V domains shown)
VH: B3 VH with R72V, T74K, T76I, V79A, S85R, E89D
VL: B3 VL
modifications: PR302341-18 VH, PR302341-23 VH, PR302341-26 VH, PR302341-27 VH,PR302341-30 VH, PR302341-31 VH, PR302341-42 VH; PR302341-19 VL, PR302341-20 VL, PR302341-21 VL, PR302341-22 VL,PR302341-23 VL, PR302341-28 VL, PR302341-29 VL, PR302341-2 VL,PR302341-41 VL, PR302341-55 VL, PR302341-56 VL, PR302341-57 VL,PR302341-
As to B4, the IC50 in the assay on mouse CRHR2 (CHO-CRE-mCRHR2 cells, 5 nM CRH) was found to be 501 pM; in the assay with mouse CRHR2 (Table 9, mCrhr2), 1370 pM; with human CRHR2 (setting [1]), 127 pM; with human CRHR2 (Table 9, hCRHR2), 1380 pM.

B5: PR302341-20: humanized variant of Series 10 mAb PR302341; VH SEQ ID NO: 283, VL SEQ ID NO: 340 (antibody, V domains shown)
VH: B3 VH with G44R, M70I, T76A, V79A
VL: B3 VL
modifications: PR302341-15 VH, PR302341-20 VH, PR302341-70 VH, PR302341-71 VH,PR302341-72 VH; PR302341-19 VL, PR302341-20 VL, PR302341-21 VL, PR302341-22 VL,PR302341-23 VL, PR302341-28 VL, PR302341-29 VL, PR302341-2 VL,PR302341-41 VL, PR302341-55 VL, PR302341-56 VL, PR302341-57 VL,PR302341-
Take B5: the IC50 came to 602 pM in the assay with mouse CRHR2 (CHO-CRE-mCRHR2 cells, 5 nM CRH); 1980 pM in the assay with mouse CRHR2 (Table 9, mCrhr2); 263 pM in the assay on human CRHR2 (setting [1]); 1210 pM with human CRHR2 (Table 9, hCRHR2).

B6: PR302341-21: humanized variant of Series 10 mAb PR302341; VH SEQ ID NO: 284, VL SEQ ID NO: 340 (antibody, V domains shown)
VH: B3 VH with G44R, M70I, R72V, T74K, T76A, V79A
VL: B3 VL
modifications: PR302341-16 VH, PR302341-21 VH, PR302341-24 VH, PR302341-25 VH; PR302341-19 VL, PR302341-20 VL, PR302341-21 VL, PR302341-22 VL,PR302341-23 VL, PR302341-28 VL, PR302341-29 VL, PR302341-2 VL,PR302341-41 VL, PR302341-55 VL, PR302341-56 VL, PR302341-57 VL,PR302341-
B6: the IC50 in the assay on mouse CRHR2 (CHO-CRE-mCRHR2 cells, 5 nM CRH) is 633 pM; with human CRHR2 (setting [1]) it was 272 pM.

B7: PR302341-24: humanized variant of Series 10 mAb PR302341; VH SEQ ID NO: 284, VL SEQ ID NO: 336 (antibody, V domains shown)
VH: B3 VH with G44R, M70I, R72V, T74K, T76A, V79A
VL: B3 VL with S7T, L11S, S48P, S72A
modifications: PR302341-16 VH, PR302341-21 VH, PR302341-24 VH, PR302341-25 VH; PR302341-10 VL, PR302341-24 VL, PR302341-26 VL, PR302341-43 VL,PR302341-44 VL, PR302341-45 VL, PR302341-4 VL
As for B7, the IC50 is about 457 pM in the assay with mouse CRHR2 (CHO-CRE-mCRHR2 cells, 5 nM CRH) and 99 pM with human CRHR2 (setting [1]).

B8: PR302309: Series 7 anti-CRH mAb from immunized wildtype mice; VH SEQ ID NO: 260, VL SEQ ID NO: 317 (antibody, V domains shown)
VH: QIQLVQSGPELKKPGETVKISCKASGYTFTNYGMNWVKQAPGKVLKWMGWINTYTGEPIYTDDFKGRFAFSLETSASTAYLQINNLKNEDTATYFCSRSTMITTGGVFAYWGQGTLVTVSA
VL: DVLMAQTPLSLPVSLGDQASISCRSSQTIVHSDGNTYLEWYLQKPGQSPKLLIYKVSNRFSGVPDRFSGSGSGTDFTLKISRVEAEDLGVYYCFQGSHVPWTFGGGTKLEIK
modifications: PR302309-1 VH, PR302309-2 VH, PR302309-3 VH, PR302309-4 VH,PR302309-5 VH, PR302309-6 VH, PR302309 VH; PR302309-13 VL, PR302309-14 VL, PR302309-15 VL, PR302309-16 VL,PR302309 VL
On to B8, for which, in the assay with biotinylated CRH, the “kdis” value stood at 4.03e-06 s⁻¹ and the “kon” value stood at 263000 M⁻¹ s⁻¹.

As a reminder, the kon is the rate constant with which the complex forms. Read a low kon as slow association. What is called IC50 is the concentration that gives 50% inhibition. High values mean lower potency, low ones higher potency.
